What was measured:
[1] = test system: mice; experiment: Motor activity in terms of wheel running activity; type: in vivo; conditions: vs EGFP control mice
Protocol: Next, an open reading frame of SITH-1 was linked downstream of a GFAP promoter, and expressed in glial cells of mice using an adenovirus vector; three weeks later, the mice were measured for their motor activity in terms of wheel running activity.
Subsequently, an open reading frame of SITH-1 was linked downstream of a GFAP promoter, and expressed in glial cells of mice using a lentivirus vector; eight weeks later, the mice were measured for their motor activity in terms wheel running activity.

[2] = test system: astrocyte-like glial cell line (U373); experiment: Intracellular calcium concentration measured with Fura2 after thapsigargin stimulation; type: cell-based; conditions: SITH-1 transferred via retrovirus vector into U373, thapsigargin (TG) stimulation, vs vector only
Protocol: In another experiment, two samples were prepared; one sample was prepared by transferring SITH-1 into an astrocyte-like glial cell line (U373) via a retrovirus vector, and the other sample was prepared by introducing only the vector into U373. Each sample was stimulated with thapsigargin (TG), and an intracellular calcium concentration was measured using Fura2.

[3] = test system: mice; experiment: Forced swimming test; type: in vivo
Protocol: (§1) SITH-1 having a glial fibrillary acidic protein (GFAP) promoter linked upstream of its open reading frame was injected into the brains of newborn mice using an adenovirus vector or a retrovirus vector. GFAP is a protein expressed specifically in glial cells such as astrocytes.
(§2) A tail suspension test and a forced swimming test were conducted to evaluate mental disorders; these tests are commonly used to observe patients with depression or manic-depressive illness. Specifically, mice into which SITH-1 was transferred using an adenovirus vector were subjected to a tail suspension test. […] Subsequently, mice into which SITH-1 was transferred using a retrovirus vector were subjected to a forced swimming test.

[4] = test system: mice; experiment: Tail suspension test; type: in vivo; conditions: SITH-1 transferred using adenovirus vector, GFAP promoter, injected into brains of newborn mice
Protocol: as §1, §2

[5] = target: T1, calcium-signal modulating cyclophilin ligand (CAML) (Homo sapiens, UniProt P49069); experiment: Binding of SITH-1 to host protein (yeast two-hybrid, in vitro pull-down, co-precipitation); conditions: yeast two-hybrid with human fetal brain cDNA library; GST pull-down; co-precipitation in 293T cells
T1 construct: made in house; host or cells: yeast (two-hybrid prey from a human fetal brain cDNA library); E. coli (pull-down); 293T cells (transfected, co-precipitation)
T1 sequence (P49069 1-296): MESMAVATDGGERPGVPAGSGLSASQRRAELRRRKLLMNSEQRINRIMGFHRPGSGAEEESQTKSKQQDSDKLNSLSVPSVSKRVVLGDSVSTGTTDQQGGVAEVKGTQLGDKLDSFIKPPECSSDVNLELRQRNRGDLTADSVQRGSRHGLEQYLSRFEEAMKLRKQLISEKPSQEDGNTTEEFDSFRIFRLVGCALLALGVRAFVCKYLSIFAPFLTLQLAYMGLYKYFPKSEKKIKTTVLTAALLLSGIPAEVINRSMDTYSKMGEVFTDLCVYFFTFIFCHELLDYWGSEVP
Protocol: To study the function of the protein SITH-1, a host protein to which the protein SITH-1 would bind within cells was identified. This was performed by screening of a human fetal brain cDNA library by means of yeast two-hybrid assay with the protein SITH-1 used as a bait.

[6] = test system: astrocyte-like glial cell line (U373); experiment: Fluorescent antibody staining of CAML in SITH-1-expressing U373 cells; type: cell-based; conditions: SITH-1 expressed in U373 vs untreated U373 cells
Source text: CAML is a protein that has been reported to show strong expression in lymphocytes and in a brain, and it is known that CAML has ability to increase an intracellular calcium concentration. Thus, in order to see whether the protein SITH-1 would be mediated by CAML to increase the intracellular calcium concentration, both an astrocyte-like glial cell line (U373) in which SITH-1 had been expressed and untreated U373 cells were stained by the fluorescent antibody technique using anti-SITH-1 antibodies and anti-CAML antibodies.

[7] = test system: mice; experiment: Startle response (prepulse inhibition); type: in vivo; conditions: SITH-1 transferred using adenovirus vector
Protocol: as §1
The present inventors also measured a prepulse inhibition in order to check for any abnormality in a startle response, which abnormality is to be found in patients with manic-depressive illness and schizophrenia. Specifically, mice into which SITH-1 was transferred using the adenovirus vector were evaluated for a startle response by measuring the prepulse inhibition.

B1: SITH-1: protein expressed specifically during latent infection with HHV-6; approximately 17.5 kDa, 159 amino acids, SEQ ID NO: 1 (protein)
chain: MGYEEKVSATGKTRLKILACLIVLILAAAITMLTLEIISNQKRTTTDLEAVTVALKHVSTSLASCTESTTSVHTDSVTSQPTKNKESRKKIEGKSPSWVQALTTASGIILLFCIMMIFITCSWTTEKDTEKSEVQSYASSVETLDSLNEAIIPKTEMNV
modifications: Human herpesvirus 6
- motor activity (wheel running activity) ([1]; adenovirus vector, three weeks later): motor activity enhanced
- motor activity (wheel running activity) ([1]; lentivirus vector, eight weeks later): motor activity suppressed
- intracellular calcium concentration [2]: considerably higher
- immobile time ([3]; retrovirus vector at HIGH titer, vs EGFP control mice): longer immobile time
- immobile time ([3]; retrovirus vector at LOW titer): shorter immobile time
- immobile time [4]: markedly shorter immobile time
- binding to CAML [5]: bind strongly
- amount of CAML [6]: more CAML was found than in the untreated U373 cells
- prepulse inhibition [7]: markedly lower prepulse inhibition

Reference: patent US10487118B2, “Factor involved in latent infection with herpes virus, and use thereof” (Virus Ikagaku Kenkyusho Inc., priority 2007, dated 2019)
